Experimental data: patent publication US20100196919A1, “PEPTIDES, ANTIBODIES AND FRAGMENTS THEREOF FOR THE TREATMENT AND DIAGNOSTIC OF CELIAC DISEASE” (UNIVERSITÀ DEGLI STUDI DI VERONA, priority 2007, published 2010)

T1: solid-phase desmoglein 1 (Homo sapiens, UniProt Q02413)
T1 construct: purchased MBL
T1 sequence (Q02413 50-1049): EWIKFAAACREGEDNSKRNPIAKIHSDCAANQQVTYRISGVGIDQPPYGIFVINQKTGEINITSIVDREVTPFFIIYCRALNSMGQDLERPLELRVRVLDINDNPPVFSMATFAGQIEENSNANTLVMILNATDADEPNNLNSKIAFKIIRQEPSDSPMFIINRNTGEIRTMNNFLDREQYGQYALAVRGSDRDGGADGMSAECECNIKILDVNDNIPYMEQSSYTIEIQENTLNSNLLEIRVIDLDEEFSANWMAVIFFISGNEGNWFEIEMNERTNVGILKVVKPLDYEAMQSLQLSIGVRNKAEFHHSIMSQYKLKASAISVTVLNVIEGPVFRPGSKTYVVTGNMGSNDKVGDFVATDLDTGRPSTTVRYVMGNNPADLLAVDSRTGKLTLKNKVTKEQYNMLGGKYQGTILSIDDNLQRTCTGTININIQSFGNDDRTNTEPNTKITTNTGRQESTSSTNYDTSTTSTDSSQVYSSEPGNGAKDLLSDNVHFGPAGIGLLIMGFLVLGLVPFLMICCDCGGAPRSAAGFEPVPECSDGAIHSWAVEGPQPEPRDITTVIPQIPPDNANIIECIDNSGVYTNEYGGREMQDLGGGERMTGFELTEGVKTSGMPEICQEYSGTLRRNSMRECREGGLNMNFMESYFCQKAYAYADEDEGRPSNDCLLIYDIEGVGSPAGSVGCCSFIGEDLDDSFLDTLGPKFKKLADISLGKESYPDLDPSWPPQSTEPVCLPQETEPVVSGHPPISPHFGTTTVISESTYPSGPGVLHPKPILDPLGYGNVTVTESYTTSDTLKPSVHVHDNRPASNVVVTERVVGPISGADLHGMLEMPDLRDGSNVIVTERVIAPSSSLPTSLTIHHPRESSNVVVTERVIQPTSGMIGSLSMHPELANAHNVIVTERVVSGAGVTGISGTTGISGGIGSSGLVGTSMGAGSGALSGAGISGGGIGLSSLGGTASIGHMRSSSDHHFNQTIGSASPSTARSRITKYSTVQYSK

T2: solid-phase tTG (Homo sapiens, UniProt P21980)
T2 construct: purchased Eurospital
T2 sequence (P21980 1-687): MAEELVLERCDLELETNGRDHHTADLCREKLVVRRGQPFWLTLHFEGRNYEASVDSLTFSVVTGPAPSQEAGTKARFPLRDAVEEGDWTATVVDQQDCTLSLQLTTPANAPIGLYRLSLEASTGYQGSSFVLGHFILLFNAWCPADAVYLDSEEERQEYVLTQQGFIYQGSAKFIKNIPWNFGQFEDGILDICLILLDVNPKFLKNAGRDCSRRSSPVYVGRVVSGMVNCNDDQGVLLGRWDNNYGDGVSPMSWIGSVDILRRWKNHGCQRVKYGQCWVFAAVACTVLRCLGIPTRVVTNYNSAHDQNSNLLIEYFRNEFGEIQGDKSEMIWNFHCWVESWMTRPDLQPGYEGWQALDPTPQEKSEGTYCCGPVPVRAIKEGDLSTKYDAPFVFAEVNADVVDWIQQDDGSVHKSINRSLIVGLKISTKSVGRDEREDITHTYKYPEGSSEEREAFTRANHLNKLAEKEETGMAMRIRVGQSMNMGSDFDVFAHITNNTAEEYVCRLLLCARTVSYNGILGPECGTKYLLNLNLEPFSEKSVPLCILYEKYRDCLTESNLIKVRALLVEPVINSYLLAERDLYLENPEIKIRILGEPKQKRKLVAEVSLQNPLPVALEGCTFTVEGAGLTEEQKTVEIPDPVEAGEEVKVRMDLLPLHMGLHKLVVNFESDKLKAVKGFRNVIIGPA

B1: human recombinant tTG: commercially available recombinant human tissue transglutaminase used as competitor (protein, UniProt P21980 2-687, looked up)
Protein-glutamine …: AEELVLERCDLELETNGRDHHTADLCREKLVVRRGQPFWLTLHFEGRNYEASVDSLTFSVVTGPAPSQEAGTKARFPLRDAVEEGDWTATVVDQQDCTLSLQLTTPANAPIGLYRLSLEASTGYQGSSFVLGHFILLFNAWCPADAVYLDSEEERQEYVLTQQGFIYQGSAKFIKNIPWNFGQFEDGILDICLILLDVNPKFLKNAGRDCSRRSSPVYVGRVVSGMVNCNDDQGVLLGRWDNNYGDGVSPMSWIGSVDILRRWKNHGCQRVKYGQCWVFAAVACTVLRCLGIPTRVVTNYNSAHDQNSNLLIEYFRNEFGEIQGDKSEMIWNFHCWVESWMTRPDLQPGYEGWQALDPTPQEKSEGTYCCGPVPVRAIKEGDLSTKYDAPFVFAEVNADVVDWIQQDDGSVHKSINRSLIVGLKISTKSVGRDEREDITHTYKYPEGSSEEREAFTRANHLNKLAEKEETGMAMRIRVGQSMNMGSDFDVFAHITNNTAEEYVCRLLLCARTVSYNGILGPECGTKYLLNLNLEPFSEKSVPLCILYEKYRDCLTESNLIKVRALLVEPVINSYLLAERDLYLENPEIKIRILGEPKQKRKLVAEVSLQNPLPVALEGCTFTVEGAGLTEEQKTVEIPDPVEAGEEVKVRMDLLPLHMGLHKLVVNFESDKLKAVKGFRNVIIGPA

Tests used:
solid-phase desmoglein 1 = target: T1, solid-phase desmoglein 1; experiment: Competitive ELISA with desmoglein 1-coated plates; type: binding; details: liquid-phase competitor, 0.6-20 μg/ml
Description: Desmoglein 1-coated plates were purchased from MBL (Woburn, Mass., United States). Serum samples in diluting buffer (serum dilution ranged from 1:400 to 1:800 corresponding to 50% maximal binding to solid-phase desmoglein 1) were pre-incubated with increasing concentrations of competitors (synthetic peptides and recombinant human tTG: 20, 10, 5, 2.5, 1.25, 0.6 μg/ml) for 1 h at 37° C. The mixture was then transferred to the desmoglein-coated plate. In this particular assay, the authors used the desmoglein 1 peptide as liquid-phase competitor, since the only liquid-phase recombinant desmoglein 1 available is an Fc chimera.

solid-phase tTG = target: T2, solid-phase tTG; experiment: Competitive ELISA using tTG-coated plates; type: binding; details: pre-incubation with competitor, 0.6-20 μg/ml
Description: (§1) The direct and competitive ELISA for antibody binding to the synthetic peptides have already been described elsewhere. Briefly, the synthetic peptides were used at a concentration of 20 μg/ml in PBS to coat polystyrene plates (Nunc, Roskilde, Denmark). Plates were then blocked for 1 h with PBS 3% BSA. Serum samples were diluted in diluting buffer (PBS 1% BSA 0.05% Tween) and incubated on the plates for 3 h at room temperature. Plates were then washed twice with PBS 1% Tween and twice with PBS. Bound antibodies were detected by an alkaline phosphatase-conjugated anti-human IgA antiserum (1:1,000 in diluting buffer) (Sigma, St. Louis, Mo., United States) or with an alkaline phosphatase-conjugated anti-human IgG antiserum (1:2,000 in diluting buffer) (Sigma). In some experiments, an alkaline phosphatase-conjugated anti-rabbit IgG antiserum (1:2,000 in diluting buffer) (Sigma) was also used. The secondary reagents were incubated overnight at 4° C.; plates were then washed twice with PBS/Tween and twice with PBS. The alkaline phosphatase substrate (Sigma) diluted in bicarbonate buffer was then added to the wells and the plates read after 30 min or 1 h at a spectrophotometer set at 450 nm. For the competitive assay, the amount of antibody (or serum dilution) that gave 50% of the maximum binding to the antigen on the solid phase was pre-incubated for 1 h at 37° C. with different amounts of competitors (20, 10, 5, 2.5, 1.25, 0.6 μg/ml) or buffer (diluting buffer as the one used in the direct ELISA) and then transferred to the antigen-coated plates. The assay was then carried on as the direct binding assay. For the competitive ELISAs presented in this paper in particular, the following experimental conditions were used. (1) Competitive ELISA using tTG-coated plates. Plates coated with human recombinant tTG were purchased from Eurospital. Serum samples in diluting buffer (serum dilution ranged from 1:400 to 1:1,600 corresponding to 50% maximal binding to solid-phase tTG) were pre-incubated with increasing concentration of competitors (synthetic peptides or recombinant human tTG: 20, 10, 5, 2.5, 1.25, 0.6 μg/ml) for 1 h at 37° C. The mixture was then transferred to the tTG-coated plate. The remainder of the assay was performed as the direct binding assay. Results are expressed as: […]

solid-phase HSP60 = target: T3, solid-phase HSP60 (Homo sapiens, UniProt P10809); experiment: Competitive ELISA on solid-phase HSP60; type: binding; details: pre-incubation with competitor
T3 construct: purchased Stressgen
T3 sequence (P10809 27-573): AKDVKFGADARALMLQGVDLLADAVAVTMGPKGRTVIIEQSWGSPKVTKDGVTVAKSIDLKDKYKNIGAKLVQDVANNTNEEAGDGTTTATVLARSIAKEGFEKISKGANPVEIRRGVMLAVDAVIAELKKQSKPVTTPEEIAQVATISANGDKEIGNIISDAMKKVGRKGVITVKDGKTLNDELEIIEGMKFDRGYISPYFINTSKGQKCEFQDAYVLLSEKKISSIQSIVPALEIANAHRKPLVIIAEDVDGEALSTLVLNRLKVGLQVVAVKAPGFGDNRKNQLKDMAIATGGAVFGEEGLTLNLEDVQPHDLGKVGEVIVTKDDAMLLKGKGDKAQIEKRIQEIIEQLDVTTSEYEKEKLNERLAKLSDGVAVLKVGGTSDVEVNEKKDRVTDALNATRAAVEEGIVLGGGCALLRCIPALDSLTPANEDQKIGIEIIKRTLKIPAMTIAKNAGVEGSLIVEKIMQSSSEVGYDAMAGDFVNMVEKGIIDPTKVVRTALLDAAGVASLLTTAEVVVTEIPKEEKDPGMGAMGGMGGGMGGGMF
Description: as §1, with “Serum samples in diluting buffer (serum dilution ranged from 1:400 to 1:1,600 corresponding to 50% maximal binding to solid-phase tTG) were pre-incubated with increasing concentration of competitors (synthetic peptides or recombinant human tTG: 20, 10, 5, 2.5, 1.25, 0.6 μg/ml) for 1 h at 37° C. The mixture was then transferred to the tTG-coated plate. The remainder of the assay was performed as the direct binding assay.” left out

solid-phase TLR4 peptide = target: T4, solid-phase TLR4 peptide (Homo sapiens, UniProt O00206); experiment: Competitive ELISA on solid-phase TLR4 peptide; type: binding; details: liquid-phase competitor
T4 construct: made in house; host or cells: chemical solid-phase synthesis (FMOC)
Description: as §1

[1] = tested on: T84 human intestinal epithelial cell line; experiment: [3H] mannitol flux across T84 monolayers; type: cell-based; details: pre-incubation of antibodies with the substance; T84, 3 h
Description: T84 cells obtained from the American Type Culture Collection (Manassas, Va., United States) were grown in a 5% CO2 humidified incubator at 37° C. on 162-cm^2 flasks (Corning Costar, Acton, Mass., United States) with media containing a 1:1 mixture of Ham's F-12 nutrient mixture and DMEM supplemented with 6% heat-inactivated fetal bovine serum, 15 mM HEPES, 14.3 mM NaHCO3, and antibiotics (penicillin and streptomycin)-antimycotics (pH 7.4). Cells were passaged weekly on reaching confluence. For experiments, cells were plated onto collagen-coated permeable supports, where they were fed every 3 d and used from days 7-14 (within fifth passage).
Confluent T84 monolayers grown on 4.7 cm^2 transwell inserts were incubated in HEPES-phosphate-buffered Ringer solution (HPBR, containing 135 mM NaCl, 5 mM KCl, 3.33 mM NaHPO4, 1 mM CaCl2, 1 mM MgCl2, 10 mM glucose, and 5 mM HEPES [pH 7.4]) for 30 min, followed by treatment with basolaterally applied Igs (20 μg/ml) in the presence of [^3H] mannitol (5 μCi/ml) in the basolateral compartment. Apical solution was sampled every 30 min (to detect the presence of [^3H] mannitol) and exchanged with fresh HPBR buffer solution for a total of 4 h. The collected apical samples were placed in vials containing scintillation fluid and analyzed for the presence of [^3H] mannitol by scintillation counter.

Human monocytes = experiment: Stimulation of monocytes, FACS analysis of activation markers; type: cell-based; details: monocytes incubated overnight, antibody preparations 20 μg/ml, LPS 1 μg/ml
Description: Human monocytes were isolated from normal donors and incubated overnight at a density of 1×10^6 cells/ml in RPMI 10% FCS in 24-well plates in the presence of the antibody preparations (20 μg/ml) or lipopolysaccharide (LPS) (1 μg/ml) (Sigma). The medium used and all the antibody preparations were treated with Detoxi-gel endotoxin-removing columns (Pierce). Presence of LPS contaminants in the antibody preparation and buffers as well as in the culture medium was assessed using the HEK-Blue LPS Detection Kit (Invivogen); all the antibody preparation and buffers used throughout the study were devoided of LPS contaminants. Monocytes were then used for fluorescence-activated cell sorting (FACS) analysis.
Cells were incubated with R-phycoerythrin directly conjugated anti-CD1, -CD83, and -CD86 antibodies for 30 min on ice. […] Samples were run on a FACScan flow cytometer (Becton Dickinson, Mountain View, Calif., United States). All the antibodies used were purchased from Immunotech (Marseille, France).

Molecule | inhibition of binding of anti-celiac peptide antibodies to solid-phase desmoglein 1 (solid-phase desmoglein 1) | inhibition of antibody binding to solid-phase tTG by liquid-phase competitor (solid-phase tTG) | inhibition of antibody binding to solid-phase HSP60 by liquid-phase competitor (solid-phase HSP60) | inhibition of binding of anti-celiac peptide antibodies to solid-phase TLR4 peptide (solid-phase TLR4 peptide) | blocking of the effect of anti-celiac peptide antibodies on cell permeability [1] | Percentage of positive cells, CD83 (Human monocytes; medium alone 9.4%) | Percentage of positive cells, CD40 (Human monocytes; medium alone 62.3%)
LSSLGGTASIGH [desmoglein 1 peptide] | inhibited | – | – | – | – | – | –
RIRVGQSMNMGS [tTG peptide] | – | inhibited | inhibited | – | – | – | –
VIQVGGSNVLDI [VP-7 peptide] | inhibited | inhibited | inhibited | Inhibition | – | – | –
VLKMAGNSFQEN [TLR4 peptide] | inhibited | – | – | Inhibition | – | – | –
VTLPKDSDVELP [irrelevant control peptide] | – | not | – | not | not | – | –
VVKVGGSSSLGW [celiac peptide] | inhibited | inhibited | inhibited | Inhibition | blocked | – | –
lipopolysaccharide [LPS] | – | – | – | – | – | 45% | 89%
B1 | inhibited | – | – | – | blocked | – | –
